The values that follow come from US20140087995A1 (published 2014).

Numbered stars: 1 amine (or outer) side, 2 acyl side, 3 side chain; on linkers, the order of the positions; unused ones are H or OH. Bridge positions count the residues as written; N and C are the ends. * marks the point of attachment. C20 diacid = O=C(O)CCCCCCCCCCCCCCCCCCC(=O)*; γGlu = O=C(O)[C@H](CCC(=O)[*:2])N[*:1]; AEEA = NCCOCCOCC(=O)O

In the assay the target is T1, human calcitonin receptor (human, UniProt P30988 25-474).
T1 sequence (looked up): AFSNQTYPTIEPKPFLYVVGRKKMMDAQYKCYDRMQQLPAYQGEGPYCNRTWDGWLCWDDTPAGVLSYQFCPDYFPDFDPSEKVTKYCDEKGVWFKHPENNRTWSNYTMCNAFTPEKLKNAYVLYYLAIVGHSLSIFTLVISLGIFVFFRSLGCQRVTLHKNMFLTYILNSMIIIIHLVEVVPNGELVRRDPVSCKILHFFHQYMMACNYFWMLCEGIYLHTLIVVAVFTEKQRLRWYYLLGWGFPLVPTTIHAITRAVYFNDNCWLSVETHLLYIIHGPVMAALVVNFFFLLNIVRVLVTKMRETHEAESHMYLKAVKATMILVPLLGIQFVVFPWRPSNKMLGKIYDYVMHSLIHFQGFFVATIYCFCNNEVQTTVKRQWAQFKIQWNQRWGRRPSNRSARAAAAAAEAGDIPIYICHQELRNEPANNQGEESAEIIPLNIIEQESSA
The assay is described as follows: cell-based or functional assay.

B1: N^α1-[2-[2-[2-[[2-[2-[2-[[(4S)-4-carboxy-4-(19-carboxynonadecanoylamino)butanoyl]amino]ethoxy]ethoxy]acetyl]amino]ethoxy]ethoxy]acetyl]-[Glu14,Arg17,Pro21,Pro27 … (peptide)
peptide: {C20 diacid-γGlu-AEEA-AEEA}-KCNTATCATQRLAEFLRHSSPNFGAIPSSTNVGSNTP-NH2
modifications: disulfide 2-7
SMILES: CC[C@H](C)[C@H](NC(=O)[C@H](C)NC(=O)CNC(=O)[C@H](Cc1ccccc1)NC(=O)[C@H](CC(N)=O)NC(=O)[C@@H]1CCCN1C(=O)[C@H](CO)NC(=O)[C@H](CO)NC(=O)[C@H](Cc1c[nH]cn1)NC(=O)[C@H](CCCNC(=N)N)NC(=O)[C@H](CC(C)C)NC(=O)[C@H](Cc1ccccc1)NC(=O)[C@H](CCC(=O)O)NC(=O)[C@H](C)NC(=O)[C@H](CC(C)C)NC(=O)[C@H](CCCNC(=N)N)NC(=O)[C@H](CCC(N)=O)NC(=O)[C@@H](NC(=O)[C@H](C)NC(=O)[C@@H]1CSSC[C@H](NC(=O)[C@H](CCCCN)NC(=O)COCCOCCNC(=O)COCCOCCNC(=O)CC[C@H](NC(=O)CCCCCCCCCCCCCCCCCCC(=O)O)C(=O)O)C(=O)N[C@@H](CC(N)=O)C(=O)N[C@@H]([C@@H](C)O)C(=O)N[C@@H](C)C(=O)N[C@@H]([C@@H](C)O)C(=O)N1)[C@@H](C)O)C(=O)N1CCC[C@H]1C(=O)N[C@@H](CO)C(=O)N[C@@H](CO)C(=O)N[C@H](C(=O)N[C@@H](CC(N)=O)C(=O)N[C@H](C(=O)NCC(=O)N[C@@H](CO)C(=O)N[C@@H](CC(N)=O)C(=O)N[C@H](C(=O)N1CCC[C@H]1C(N)=O)[C@@H](C)O)C(C)C)[C@@H](C)O
notes: Synthetic acylated analogue of human amylin; also called compound 20
As to B1, the “hCTR funct. EC50 (CRE luciferase reporter, BHK cells)” value (from here on “hCTR funct. EC50”) is 0.285 nM.

B2: N^α1-[(4S)-4-carboxy-4-(19-carboxynonadecanoylamino)butanoyl]-[Glu14,Arg17,Pro21,Pro26,Pro37]-h-amylin (peptide)
peptide: {C20 diacid-γGlu}-KCNTATCATQRLAEFLRHSSPNFGAPLSSTNVGSNTP-NH2
modifications: disulfide 2-7
SMILES: CC(C)C[C@H](NC(=O)[C@H](CCCNC(=N)N)NC(=O)[C@H](CCC(N)=O)NC(=O)[C@@H](NC(=O)[C@H](C)NC(=O)[C@@H]1CSSC[C@H](NC(=O)[C@H](CCCCN)NC(=O)CC[C@H](NC(=O)CCCCCCCCCCCCCCCCCCC(=O)O)C(=O)O)C(=O)N[C@@H](CC(N)=O)C(=O)N[C@@H]([C@@H](C)O)C(=O)N[C@@H](C)C(=O)N[C@@H]([C@@H](C)O)C(=O)N1)[C@@H](C)O)C(=O)N[C@@H](C)C(=O)N[C@@H](CCC(=O)O)C(=O)N[C@@H](Cc1ccccc1)C(=O)N[C@@H](CC(C)C)C(=O)N[C@@H](CCCNC(=N)N)C(=O)N[C@@H](Cc1c[nH]cn1)C(=O)N[C@@H](CO)C(=O)N[C@@H](CO)C(=O)N1CCC[C@H]1C(=O)N[C@@H](CC(N)=O)C(=O)N[C@@H](Cc1ccccc1)C(=O)NCC(=O)N[C@@H](C)C(=O)N1CCC[C@H]1C(=O)N[C@@H](CC(C)C)C(=O)N[C@@H](CO)C(=O)N[C@@H](CO)C(=O)N[C@H](C(=O)N[C@@H](CC(N)=O)C(=O)N[C@H](C(=O)NCC(=O)N[C@@H](CO)C(=O)N[C@@H](CC(N)=O)C(=O)N[C@H](C(=O)N1CCC[C@H]1C(N)=O)[C@@H](C)O)C(C)C)[C@@H](C)O
notes: Synthetic acylated analogue of human amylin; also called compound 5
B2: the “hCTR funct. EC50” value is 0.16 nM.

B3: N^α1-[(4S)-4-carboxy-4-[[(4S)-4-carboxy-4-(19-carboxynonadecanoylamino)butanoyl]amino]butanoyl]-[Glu14,Arg17,Pro21,Pro27,Pro37]-h-amylin (peptide)
peptide: {C20 diacid-γGlu-γGlu}-KCNTATCATQRLAEFLRHSSPNFGAIPSSTNVGSNTP-NH2
modifications: disulfide 2-7
SMILES: CC[C@H](C)[C@H](NC(=O)[C@H](C)NC(=O)CNC(=O)[C@H](Cc1ccccc1)NC(=O)[C@H](CC(N)=O)NC(=O)[C@@H]1CCCN1C(=O)[C@H](CO)NC(=O)[C@H](CO)NC(=O)[C@H](Cc1c[nH]cn1)NC(=O)[C@H](CCCNC(=N)N)NC(=O)[C@H](CC(C)C)NC(=O)[C@H](Cc1ccccc1)NC(=O)[C@H](CCC(=O)O)NC(=O)[C@H](C)NC(=O)[C@H](CC(C)C)NC(=O)[C@H](CCCNC(=N)N)NC(=O)[C@H](CCC(N)=O)NC(=O)[C@@H](NC(=O)[C@H](C)NC(=O)[C@@H]1CSSC[C@H](NC(=O)[C@H](CCCCN)NC(=O)CC[C@H](NC(=O)CC[C@H](NC(=O)CCCCCCCCCCCCCCCCCCC(=O)O)C(=O)O)C(=O)O)C(=O)N[C@@H](CC(N)=O)C(=O)N[C@@H]([C@@H](C)O)C(=O)N[C@@H](C)C(=O)N[C@@H]([C@@H](C)O)C(=O)N1)[C@@H](C)O)C(=O)N1CCC[C@H]1C(=O)N[C@@H](CO)C(=O)N[C@@H](CO)C(=O)N[C@H](C(=O)N[C@@H](CC(N)=O)C(=O)N[C@H](C(=O)NCC(=O)N[C@@H](CO)C(=O)N[C@@H](CC(N)=O)C(=O)N[C@H](C(=O)N1CCC[C@H]1C(N)=O)[C@@H](C)O)C(C)C)[C@@H](C)O
notes: Synthetic acylated analogue of human amylin; also called compound 14
Take B3: the “hCTR funct. EC50” value is 0.238 nM.

B4: N^α1-[(4S)-4-carboxy-4-(19-carboxynonadecanoylamino)butanoyl]-[Glu14,Arg17,Pro21,Pro27,Pro37]-h-amylin (peptide)
peptide: {C20 diacid-γGlu}-KCNTATCATQRLAEFLRHSSPNFGAIPSSTNVGSNTP-NH2
modifications: disulfide 2-7
SMILES: CC[C@H](C)[C@H](NC(=O)[C@H](C)NC(=O)CNC(=O)[C@H](Cc1ccccc1)NC(=O)[C@H](CC(N)=O)NC(=O)[C@@H]1CCCN1C(=O)[C@H](CO)NC(=O)[C@H](CO)NC(=O)[C@H](Cc1c[nH]cn1)NC(=O)[C@H](CCCNC(=N)N)NC(=O)[C@H](CC(C)C)NC(=O)[C@H](Cc1ccccc1)NC(=O)[C@H](CCC(=O)O)NC(=O)[C@H](C)NC(=O)[C@H](CC(C)C)NC(=O)[C@H](CCCNC(=N)N)NC(=O)[C@H](CCC(N)=O)NC(=O)[C@@H](NC(=O)[C@H](C)NC(=O)[C@@H]1CSSC[C@H](NC(=O)[C@H](CCCCN)NC(=O)CC[C@H](NC(=O)CCCCCCCCCCCCCCCCCCC(=O)O)C(=O)O)C(=O)N[C@@H](CC(N)=O)C(=O)N[C@@H]([C@@H](C)O)C(=O)N[C@@H](C)C(=O)N[C@@H]([C@@H](C)O)C(=O)N1)[C@@H](C)O)C(=O)N1CCC[C@H]1C(=O)N[C@@H](CO)C(=O)N[C@@H](CO)C(=O)N[C@H](C(=O)N[C@@H](CC(N)=O)C(=O)N[C@H](C(=O)NCC(=O)N[C@@H](CO)C(=O)N[C@@H](CC(N)=O)C(=O)N[C@H](C(=O)N1CCC[C@H]1C(N)=O)[C@@H](C)O)C(C)C)[C@@H](C)O
notes: Synthetic acylated analogue of human amylin; also called compound 8
With B4, the “hCTR funct. EC50” value came out at 0.087 nM.

B5: N^α1-[(4S)-4-carboxy-4-(19-carboxynonadecanoylamino)butanoyl]-[Glu14,Arg17,Pro21,Pro27,Asp35,Pro37]-h-amylin (peptide)
peptide: {C20 diacid-γGlu}-KCNTATCATQRLAEFLRHSSPNFGAIPSSTNVGSDTP-NH2
modifications: disulfide 2-7
SMILES: CC[C@H](C)[C@H](NC(=O)[C@H](C)NC(=O)CNC(=O)[C@H](Cc1ccccc1)NC(=O)[C@H](CC(N)=O)NC(=O)[C@@H]1CCCN1C(=O)[C@H](CO)NC(=O)[C@H](CO)NC(=O)[C@H](Cc1c[nH]cn1)NC(=O)[C@H](CCCNC(=N)N)NC(=O)[C@H](CC(C)C)NC(=O)[C@H](Cc1ccccc1)NC(=O)[C@H](CCC(=O)O)NC(=O)[C@H](C)NC(=O)[C@H](CC(C)C)NC(=O)[C@H](CCCNC(=N)N)NC(=O)[C@H](CCC(N)=O)NC(=O)[C@@H](NC(=O)[C@H](C)NC(=O)[C@@H]1CSSC[C@H](NC(=O)[C@H](CCCCN)NC(=O)CC[C@H](NC(=O)CCCCCCCCCCCCCCCCCCC(=O)O)C(=O)O)C(=O)N[C@@H](CC(N)=O)C(=O)N[C@@H]([C@@H](C)O)C(=O)N[C@@H](C)C(=O)N[C@@H]([C@@H](C)O)C(=O)N1)[C@@H](C)O)C(=O)N1CCC[C@H]1C(=O)N[C@@H](CO)C(=O)N[C@@H](CO)C(=O)N[C@H](C(=O)N[C@@H](CC(N)=O)C(=O)N[C@H](C(=O)NCC(=O)N[C@@H](CO)C(=O)N[C@@H](CC(=O)O)C(=O)N[C@H](C(=O)N1CCC[C@H]1C(N)=O)[C@@H](C)O)C(C)C)[C@@H](C)O
notes: Synthetic acylated analogue of human amylin; also called compound 11
For the molecule B5, the “hCTR funct. EC50” value was found to be 0.112 nM.

B6: N^α1-[(4S)-4-carboxy-4-(19-carboxynonadecanoylamino)butanoyl]-[Asp14,Arg17,Pro21,Pro27,Pro37]-h-amylin (peptide)
peptide: {C20 diacid-γGlu}-KCNTATCATQRLADFLRHSSPNFGAIPSSTNVGSNTP-NH2
modifications: disulfide 2-7
SMILES: CC[C@H](C)[C@H](NC(=O)[C@H](C)NC(=O)CNC(=O)[C@H](Cc1ccccc1)NC(=O)[C@H](CC(N)=O)NC(=O)[C@@H]1CCCN1C(=O)[C@H](CO)NC(=O)[C@H](CO)NC(=O)[C@H](Cc1c[nH]cn1)NC(=O)[C@H](CCCNC(=N)N)NC(=O)[C@H](CC(C)C)NC(=O)[C@H](Cc1ccccc1)NC(=O)[C@H](CC(=O)O)NC(=O)[C@H](C)NC(=O)[C@H](CC(C)C)NC(=O)[C@H](CCCNC(=N)N)NC(=O)[C@H](CCC(N)=O)NC(=O)[C@@H](NC(=O)[C@H](C)NC(=O)[C@@H]1CSSC[C@H](NC(=O)[C@H](CCCCN)NC(=O)CC[C@H](NC(=O)CCCCCCCCCCCCCCCCCCC(=O)O)C(=O)O)C(=O)N[C@@H](CC(N)=O)C(=O)N[C@@H]([C@@H](C)O)C(=O)N[C@@H](C)C(=O)N[C@@H]([C@@H](C)O)C(=O)N1)[C@@H](C)O)C(=O)N1CCC[C@H]1C(=O)N[C@@H](CO)C(=O)N[C@@H](CO)C(=O)N[C@H](C(=O)N[C@@H](CC(N)=O)C(=O)N[C@H](C(=O)NCC(=O)N[C@@H](CO)C(=O)N[C@@H](CC(N)=O)C(=O)N[C@H](C(=O)N1CCC[C@H]1C(N)=O)[C@@H](C)O)C(C)C)[C@@H](C)O
notes: Synthetic acylated analogue of human amylin; also called compound 10
As to B6, the “hCTR funct. EC50” value came to 0.07 nM.
